Measurements published in the nanobody polyreactivity screen of Harvey et al. (2022).

assay: yeast display, Sf9 membrane polyspecificity reagent, FACS + sequencing; frameworks hold sequencing errors
Summary of the method: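 In a synthetic yeast display library (Saccharomyces cerevisiae BJ5465), nanobody expression was induced with galactose for 36–48 hours. FACS gates were set low and high (top ~1%) using anti-HA fluorescence for expression and streptavidin fluorescence for binding of the Sf9 membrane reagent. Each polyreactivity label is drawn from the gate of origin.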

| Sequence | polyreactivity (PSR sort gate) |
| --- | --- |
| QVQLEESGVGLVQAGGSLRLSCADSGFSFRTNAMGWYRQAPGKERELVAAISRSSGSTYYADSVKGRFTISRDNSKNTVYLQMNSMKPEETAVYYCNAVRYYSRGYTRYDYWGQGSQVTVSS | high polyreactivity |
| QVQLEESRGGLGQAGGSLRLICAASGRTFAYNPMGWSRQAPGKERELVSAITWSGGSTYYADSVKGRFTISRDNAKNTVYLQMNSLKPEDTAVYYCAREWFQYSPYHRFDYWGQGTQVTVSS | high polyreactivity |
| QVQLEESRGGLVQAGGSLRLSCAASGRIFPVYVMGWDRQAPGKERELVAAINYNGGSTTDADSVKGRFTISRDNAKNTVDLQMNSLKPEDTAVYYCAKVGVLGYYTYYYWGQGIQVTVSS | low polyreactivity |
| QVQLEESVGGLVQAGGSLRLICAASGSIFSSYAMGWYRQAPGKERELVATISKRGGITSYADSVKGRFTISRDNAKNTVYLQMNSLKPEDTAVYYCAADSWFSYRGPLYYWGQGTQVTVSS | high polyreactivity |
| QVQLEESVGGLVQAGGSLRLICAASGSTFVYNAMGWYRPAPGTERELVAAISSGGSTDYADSVKGRFTISRDNAKNTVYLQMNSLKPEDTAVYYCAARPDYRYHYWGQGTQVTVSS | high polyreactivity |
| QVQLEESVGGLVQAGGSLRLSCAASGFIFPYYTMGWYRQAPGKERELVAAISRTAVGTYYADSVKGRFTISRDNAKNTVYLQMNSLKPEDTAVYYCAVVTQRKYDYWGQGTQVTVSS | high polyreactivity |
| QVQLEESVGGLVQAGGSLRLSCAASGRIFTPYAMGWYRQAPGKERELVATISRGTSTSYADSVKGRFTISRDNAKNTVYLQMNSLKPEDTAVYYCAALGPRTTFRYTSYYYWGQGTQVTVSS | high polyreactivity |
| QVQLEETGGGLVQAGGSLRISCAASGFIFSYNAMGWYRQAPGKERELVATITRRGGGTTYADSVKGRFTISRDNAKNTVYLQMNSLIPEDTAVYYCNRDVNSKLSFGSVGYDYWGQGTQVTVSS | low polyreactivity |
| QVQLEETGGGLVQAGGSLRLSCAASGFTIYRYALGSYRQAPGKERELVAAISSRGGTTYYADSVKGRFTISRDNAKNTVYLQMNSLKPEDTAVYYCNAGYYLTLDYWGQGTQVTVSS | high polyreactivity |
| QVQLEETGGGLVQAGGSLRLSCAASGRIFWWYAMGWYRQAPGKERELVAVIDDSGGITYYADSVKGRFTISRDNAKNTVYLQMNSLKPEDTAVYYCARNVNAQKVLAGFDYWGQGTQVTVSS | low polyreactivity |
| QVQLGDSGGGLLQAGGSLRLSCAASGRTFYYNALGWYRQAPGKERELVARIRSGGSTNYADSVKGRFTISRDNAKNTVYFQMNSRKPEDTAVYYCNALGAKGYVKGFDYWGLGTQVTVSS | low polyreactivity |
| QVQLGESGGGIVQAGGSLRLSCAASGRTFPYNVMGWYRQAPGKERELVAGITGSGDSTFYADSVKGRFTISRDHAKNTVYLQMNSLKPEDTAVYYCAARYRTLNDGYIRNYWGQGTQVTVSS | low polyreactivity |
| QVQLGESGGGLCQAGGSLRLSCAASGSIIAGYTMGWYRPAPGNARELVAGIRRGGSTNYADSVKGRVTISRDNAKNTVYLQMNSLKPEDTAVYYCNAQLTRSYVLRTFDYWGQGTQVTVSS | high polyreactivity |
| QVQLGESGGGLLPAGGSLGLSCAASGSTFGYYAMGWDRQAPGKERELVAAINSGDSTSYADSVKGRFTISRDNAKTTLYLQMNSMKPEDTAVYYCAVRPRRHQYGYWGQGTQVTLSS | low polyreactivity |
| QVQLGESGGGLLQAGGSLRLSCAASGFTFYGYAMGWYRQAPGKERELVAAISRRGGSTYYADSVKGRFTISRDNAKYTVYVQMNSLKPEDTAVYYCITLFSHLRDRYDYWGQGTEVTVSS | high polyreactivity |
| QVQLGESGGGLVKAGGSLRLSCAASGRIFFDYGMGGYRQAPGKERELVADITRGGGSTYYADSVKGRFTISRDNAKNTVYLQINSQKPEDTAVYYCAKESSCYYPQRFDYWGQVTQVTVSS | low polyreactivity |
| QVQLGESGGGLVQAGGILRLSCAASGRIFPQYAMGWYRQAPGKERELVAGITSVGSTYYADSVKGRFTISRDNAKNTVYLQMNSLKPEDTAVYFCAAVPSRYVRANRRTYRYYYWGKGTQVTVSS | high polyreactivity |
| QVQLGESGGGLVQAGGSLRLICAASGFIFTTYVMGWYRQAPGKERELVAVISRSGGRTYYADSVKGRFTISRDNEKYTVYLLMNSLKPEDTAVYYCNVDIPVLSHIEYYYWGQGTQVTVSS | low polyreactivity |
| QVQLGESGGGLVQAGGSLRLICAASGLTFSYNDMGWYRQAPGKERELVAGITSNGGSTYYADSVKGRFTITRDNAKNTVYLQMNSLNPEDTAVYYCAAEQYVGVKPFLSDSWGQGNQVTVSS | low polyreactivity |
| QVQLGESGGGLVQAGGSLRLICAASGRTFKKYPMGWYRQAPGKERDVVAAISWSGGTTYYAHSEKGRFTISRDTAKNTVYLQMNSLKPEDTAVYYSAARVSRTGHGYYYYWGQVTQVTVSS | high polyreactivity |
| QVQLGESGGGLVQAGGSLRLSCAASGFTFHKNAMGWYRQAPGKERELVAVISQSASSTYYSDSVKGRFTISRDIAKITVYLQMNGLKPEDTAVYYCNAKYYRYNRRNYWGQGTQVTVSS | high polyreactivity |

| Sequence | polyreactivity (PSR sort gate) |
| --- | --- |
| QVQLGESGGGLVQAGGSLRLSCAASGFTFHLYAMGWYRQAPGKERELVAAISQSGDSTYYADSVKGRFTISRDNAKNTVYLQMNSLKPDDTAVYYFNADNDGVVWSYPFDFDYWGQGTQVTVSS | low polyreactivity |
| QVQLGESGGGLVQAGGSLRLSCAASGGIFAENAIGRYRQAPGKERELVAAINGGGSTKYADSVKGRFTISRDNAKNTVYLQMNSLKPEDTAVYYCAADPSVPRQVDYWGQGTLVTVSS | low polyreactivity |
| QVQLGESGGGLVQAGGSLRLSCAASGGIFGKYAMGWYRQAPGKERELVAAISGGSRTNYADSVKGRFTISRDNAKNTVYLQMNSLKPEDTAVYYCAARYAYSAQRLYYWGQGTQVTVSS | high polyreactivity |
| QVQLGESGGGLVQAGGSLRLSCAASGIILHGYAMGWYRPAPGKEREFVATITLSGSSTYYADSVKGRFTISRDNAKNTVYLQMNSRKAEDTAVYYSAARTWVIVYGLQYDYWGHGTQVTVSS | high polyreactivity |
| QVQLGESGGGLVQAGGSLRLSCAASGITFTKYVMGWYRQAPGKERELVATIRWGASSTHYADSVKGRFTISRDNAKNTVYLQMNSLKPEDTAVYYCNADGWYGAVYWWFYGFDYWGQGTQVTVSS | low polyreactivity |
| QVQLGESGGGLVQAGGSLRLSCAASGLIFPRYAMGWYRQAPGKERELVAAITRGGSTYYADSVKGRFTISRDNAKNTVYVQMNSLKPEDSAVYYCNDELPVHWSWYDYWGQGTQVTVSS | low polyreactivity |
| QVQLGESGGGLVQAGGSLRLSCAASGRIFASNAMGWYRPAPGKESELVAAIDQSGGSTYYADSVKGRFTISRDNAKNTVYLQMNSLKPEDTAVYYCAARAYLISSSTPFWTGYDSWGQGTQVTVSS | low polyreactivity |
| QVQLGESGGGLVQAGGSLRLSCAASGRTFDKNAMGWYRQAPGKERELVATISSGGSTYYADSVKGRFTISRDNAKNTVYLQMNSLKPEDTAVYYCNARGVRATRRRYGYWGQGTQVTVSS | low polyreactivity |
| QVQLGESGGGLVQAGGSLRLSCAASGRTFGPYAMGWYRQAPGKERELVAAIRYIDDSTFYADSVKGRFTISRDTAKNTVYLQMNSLKPEDTAVYYCAARPYPHSAYEGDYWGRGTQVTVSS | low polyreactivity |
| QVQLGESGGGLVQAGGSLRLSCAASGRTFYWYTMGWYRQAPGKESELVAAISTRGVRTYYADSVKGRFTISRDNAKNTVYLQMNSLKPADTAVYYCNNYVAYDYWGQGTQVTVSS | low polyreactivity |
| QVQLGESGGGLVQAGGSLRLSCAASGRTLWFYAMGWYRQAPGKERELVAAISSGGSTNYGDSVKGRFTISRDNAKNTVYLQMNSLKPEDTAVYYCAKVGNIPYGTRYDSNRYDYWGQGTQVTVSS | low polyreactivity |
| QVQLGESGGGLVQAGGSLRLSCAASGSIFPDNTMGWYRPATGKEWELVAAIDGRGGTTYYADSVKGRFTISRDNAKNTVYLQMNSLKPEDTAVYYCARDIGHSARYDYWGQGTQVTVSS | low polyreactivity |
| QVQLGESGGGLVQAGGSLRLSCAASGSIFSDYAMGWYRQAPGKERELVAAIRYRGGRTYYADSVKGRFTISRDNAKNTVYLQMNSLKPEDTAVYYCNADVIRRGGSRYSTGREFDYWGQGTQVTVSS | high polyreactivity |
| QVQLGESGGGLVQAGGSLRLSCAASGSTFAKYAMGWYRQAPGKERELVAAISSSGTCTYYADSVKGRFTISRDNAKNTVYLQMNSRKPEDTAVYYCAASYRNRYIAFYYWGQGTQVTVSS | low polyreactivity |
| QVQLGESGGGLVQAGGSLRLSCAASGSTFDYYAMGWYRQAPGKERELVAGITSDGSTYYADSVKGRFTISRDNAKNTVYLQMNSLKPEDTAVYYCNKDSTGDGYEYWGQGTQVTVSS | low polyreactivity |
| QVQLGESGGGLVQAGGSLRLSCAASGSTFGRYVMGWYRQAPAKERELVDAISKNAGSTYYADSVKGRFTISRDIAKKTVYLQMNSLKPEDTAVYYCAADWRTKGYDSLGQGTQVTVSS | high polyreactivity |
| QVQLGESGGGLVQAGGSLRLSCAASGSTFTRYGMGWYRQAPGKERELVAAITTSGSSTYYADSVKGRFTISRDNAKNTVYLQMNSLKPEDTAVYYCAADWSSWGFDYWGQGTQVTVSS | low polyreactivity |
| QVQLGESGGGLVQAGGSLRLSCAPTGRTFVRNAIGWYRPAPGKERELVAAISYSGGSTTYADSVKGRFTISRDNAKNTVYLQMNSLKPADTAVYYCAKKPPVGEPSGREYWGQGTQVTVSS | low polyreactivity |
| QVQLGESGGGLVQAGGSLRLSCVASGFIFRGNAMGWYRQAPGKERELVATISSGGNTYYADSVKGRFTISRDNAKNTVYLQINSLKPEDTAVYYCNASDGLPTKLNVYVEFDYWGQGTQVTVSS | low polyreactivity |
| QVQLGESGGGLVQAGVSLRLSCAASGNTFYWNAMGWYRQAPGKERELVAAISTTGVSTYYADSVKGRFTISRDNAKNTVYLQMNSLKPEDTAVYYCAVDPPYSNPITINEDYWGQGTQVTVSS | low polyreactivity |
